We go through six molecules from article PMC11435032, “Development of Biolayer Interferometry (BLI)-Based Double-Stranded RNA Detection Method with Application in mRNA-Based Therapeutics and Vaccines”.

Data set [1] deals with B2 (FHV B2 1-73) (Flock House Virus). Kind of data set: BLI. The settings on record: BLI (Octet RED384): 10 mM Tris pH 8.0, 100 mM NaCl, 0.1 mg/mL yeast tRNA, 0.1 mM EDTA, 0.05% Tween-20, temperature not stated. (BLI is a label-free optical method that tracks binding on a fibre tip over time.)
Data set [2] concerns J2 anti-dsRNA antibody. Kind of data set: BLI. The settings on record: kinetic, BLI (Octet RED384): 10 mM Tris pH 8.0, 100 mM NaCl, 0.1 mg/mL yeast tRNA, 0.1 mM EDTA, 0.05% Tween-20, temperature not stated.
Data set [3] has as its system K1 anti-dsRNA antibody. Put plainly: BLI. The settings on record: BLI (Octet RED384): 10 mM Tris pH 8.0, 100 mM NaCl, 0.1 mg/mL yeast tRNA, 0.1 mM EDTA, 0.05% Tween-20, temperature not stated.
Data set [4] concerns the target B2-Biotin (B2-Avi) (Flock House Virus, UniProt P68831 1-73). Kind of data set: BLI; avidity surface; lower asymptote than long dsRNA; BLI (Octet RED384): 10 mM Tris pH 8.0, 100 mM NaCl, 0.1 mg/mL yeast tRNA, 0.1 mM EDTA, 0.05% Tween-20; temperature not stated. The settings on record: protein: recombinant; tags: N-terminal 6xHis; C-terminal GS linker-AviTag, biotinylated by BirA in vivo; chain copies: 2; blunt.

The mark [5] stands for this setting: U replaced by N1-methylpseudouridine.

Sequence of B2-Biotin (B2-Avi) (P68831 1-73): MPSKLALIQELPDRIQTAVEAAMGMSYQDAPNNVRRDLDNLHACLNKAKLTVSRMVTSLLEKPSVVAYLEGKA

By Kd is commonly meant the equilibrium constant for the complex coming apart. In the case of 700 bp-ψ, the dissociation constant Kd in data set [1] (U replaced by pseudouridine) was 405 nM; in data set [2] (U replaced by pseudouridine), 32 nM.
On to 700 bp-m1ψ, for which the dissociation constant (Kd) in data set [1] (setting [5]) stood at 669 nM; in data set [2] (setting [5]), 56 nM.
In turn, 700 bp-5 moU showed a binding signal (fold weaker than 700 bp-U) in data set [3] (Kd value missing in material, U replaced by 5-methoxyuridine) of 4. The dissociation constant (Kd) in data set [1] (U replaced by 5-methoxyuridine) was 948 nM; in data set [2] (U replaced by 5-methoxyuridine), 131 nM.
On to 700 bp-U, for which the Kd in data set [3] amounted to 325 nM; in data set [1], 62 nM; in data set [2] it was 27 nM.

B1: 25 bp-U dsRNA (dsRNA)
RNA 1: CACGUACCGUUCUAGCGGGCUCUCG
RNA 2: CGAGAGCCCGCUAGAACGGUACGUG
As for B1, the binding result in data set [4] is reported as “binds”.

B2: 25 bp-m1ψ dsRNA (dsRNA)
RNA 1: CACGUACCGUUCUAGCGGGCUCUCG
RNA 2: CGAGAGCCCGCUAGAACGGUACGUG
modifications: U replaced by N1-methylpseudouridine
For the molecule B2, the binding result in data set [4] is “binds”.
